# Measurements as given in PMC3273807 (Nucleic Acids Research, 2011).
# B1: Wild-type FokI restriction endonuclease (enzyme)
# chain: KIRTFGWVQNPGKFENLKRVVQVFDRNSKVHNEVKNIKIPTLVKESKIQKELVAIMNQHDLIYTYKELVGTGTSIRSEAPCDAIIQATIADQGNKKGYIDNWSSDGFLRWAHALGFIEYINKSDSFVITDVGLAYSKSADGSAIEKEILIEAISSYPPAIRILTLLEDGQHLTKFDLGKNLGFSGESGFTSLPEGILLDTLANAMPKDKGEIRNNWEGSSDKYARMIGGWLDKLGLVKQGKKEFIIPTLGKPDNKEFISHAFKITGEGLKVLRRAKGSTKFTRVPKRVYWEMLATNLTDKEYVRTRRALILEILIKAGSLKIEQIQDNLKKLGFDEVIETIENDIKGLINTGIFIEIKGRFYQLKDHILQFVIPNRGVTKQLVKSELEEKKSELRHKLKYVPHEYIELIEIARNSTQDRILEMKVMEFFMKVYGYRGKHLGGSRKPDGAIYTVGSPIDYGVIVDTKAYSGGYNLPIGQADEMQRYVEENQTRNKHINPNEWWKVYPSSVTEFKFLFVSGHFKGNYKAQLTRLNHITNCNGAVLSVEELLIGGEMIKAGTLTLEEVRRKFNNGEINF
# Molecular target: the molecule itself
# Test: fluorescence polarisation
protein,measurement,value
B1,binding result,binds
